According to patent US20190300618A1 (Merck Sharp & Dohme, published 2019):

T1: R93A
T1 construct: also called hCD27 R93A
T1 receptor: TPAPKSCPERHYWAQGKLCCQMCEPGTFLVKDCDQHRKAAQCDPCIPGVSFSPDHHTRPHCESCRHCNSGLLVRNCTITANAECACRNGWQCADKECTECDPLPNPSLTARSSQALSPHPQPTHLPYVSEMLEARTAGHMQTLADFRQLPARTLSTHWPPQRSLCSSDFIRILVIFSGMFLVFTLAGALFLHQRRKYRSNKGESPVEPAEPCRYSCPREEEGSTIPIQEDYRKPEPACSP

T2: H36A
T2 construct: also called hCD27 H36A
T2 receptor: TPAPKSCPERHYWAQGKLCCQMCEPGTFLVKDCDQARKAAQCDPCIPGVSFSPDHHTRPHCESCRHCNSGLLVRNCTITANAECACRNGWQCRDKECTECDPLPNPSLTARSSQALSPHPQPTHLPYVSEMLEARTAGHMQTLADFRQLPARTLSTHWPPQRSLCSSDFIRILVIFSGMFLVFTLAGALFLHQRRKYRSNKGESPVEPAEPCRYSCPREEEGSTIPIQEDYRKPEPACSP

T3: Q15A
T3 construct: also called hCD27 Q15A
T3 receptor: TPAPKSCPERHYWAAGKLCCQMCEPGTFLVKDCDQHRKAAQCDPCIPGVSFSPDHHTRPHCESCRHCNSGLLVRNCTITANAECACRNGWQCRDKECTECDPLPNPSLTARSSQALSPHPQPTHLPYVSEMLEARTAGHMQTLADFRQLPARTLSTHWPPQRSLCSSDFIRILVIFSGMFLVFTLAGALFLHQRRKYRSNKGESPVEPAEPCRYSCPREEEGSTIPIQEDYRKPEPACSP

T4: Q41A
T4 construct: also called hCD27 Q41A
T4 receptor: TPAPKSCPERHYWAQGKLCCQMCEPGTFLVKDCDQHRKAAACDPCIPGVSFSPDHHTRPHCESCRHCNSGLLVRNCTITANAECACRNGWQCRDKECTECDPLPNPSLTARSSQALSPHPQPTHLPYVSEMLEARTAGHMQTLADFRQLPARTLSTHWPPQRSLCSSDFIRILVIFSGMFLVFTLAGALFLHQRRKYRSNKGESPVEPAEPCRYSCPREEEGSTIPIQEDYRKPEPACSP

T5: K38A
T5 construct: also called hCD27 K38A
T5 receptor: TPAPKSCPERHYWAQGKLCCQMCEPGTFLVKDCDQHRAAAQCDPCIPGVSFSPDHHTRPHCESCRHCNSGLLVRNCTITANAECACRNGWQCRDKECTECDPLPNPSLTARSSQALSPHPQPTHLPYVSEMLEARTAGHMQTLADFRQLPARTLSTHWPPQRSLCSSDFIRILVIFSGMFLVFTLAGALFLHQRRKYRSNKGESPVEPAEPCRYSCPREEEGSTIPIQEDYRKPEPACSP

T6: N88A
T6 construct: also called hCD27 N88A
T6 receptor: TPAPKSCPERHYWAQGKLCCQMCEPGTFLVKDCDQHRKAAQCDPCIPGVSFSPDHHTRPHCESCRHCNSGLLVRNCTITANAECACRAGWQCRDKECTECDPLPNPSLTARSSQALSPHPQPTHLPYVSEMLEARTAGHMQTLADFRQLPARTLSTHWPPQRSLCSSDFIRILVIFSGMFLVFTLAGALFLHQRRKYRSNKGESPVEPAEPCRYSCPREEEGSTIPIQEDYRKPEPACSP

T7: E9A
T7 construct: also called hCD27 E9A
T7 receptor: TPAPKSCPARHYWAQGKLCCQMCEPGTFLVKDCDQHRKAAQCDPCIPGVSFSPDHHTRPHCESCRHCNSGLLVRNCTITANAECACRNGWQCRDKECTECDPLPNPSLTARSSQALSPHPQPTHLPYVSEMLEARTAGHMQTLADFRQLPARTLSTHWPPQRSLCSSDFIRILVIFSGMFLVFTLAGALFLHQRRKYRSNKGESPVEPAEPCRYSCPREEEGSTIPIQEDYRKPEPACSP

T8: V49A
T8 construct: also called hCD27 V49A
T8 receptor: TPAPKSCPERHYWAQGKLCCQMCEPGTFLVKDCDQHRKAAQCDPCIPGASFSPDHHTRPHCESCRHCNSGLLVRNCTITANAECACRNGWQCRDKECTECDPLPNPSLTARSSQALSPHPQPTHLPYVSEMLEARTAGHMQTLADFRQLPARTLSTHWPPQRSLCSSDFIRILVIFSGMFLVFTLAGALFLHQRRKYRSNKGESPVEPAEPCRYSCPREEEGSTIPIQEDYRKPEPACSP

T9: P44A
T9 construct: also called hCD27 P44A
T9 receptor: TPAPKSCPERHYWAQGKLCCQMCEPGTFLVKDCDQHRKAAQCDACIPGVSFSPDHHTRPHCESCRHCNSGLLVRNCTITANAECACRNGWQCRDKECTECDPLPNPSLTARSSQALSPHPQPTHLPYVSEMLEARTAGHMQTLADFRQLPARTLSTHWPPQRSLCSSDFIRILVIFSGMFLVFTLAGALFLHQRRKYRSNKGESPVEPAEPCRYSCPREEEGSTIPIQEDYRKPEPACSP

T10: Q91A
T10 construct: also called hCD27 Q91A
T10 receptor: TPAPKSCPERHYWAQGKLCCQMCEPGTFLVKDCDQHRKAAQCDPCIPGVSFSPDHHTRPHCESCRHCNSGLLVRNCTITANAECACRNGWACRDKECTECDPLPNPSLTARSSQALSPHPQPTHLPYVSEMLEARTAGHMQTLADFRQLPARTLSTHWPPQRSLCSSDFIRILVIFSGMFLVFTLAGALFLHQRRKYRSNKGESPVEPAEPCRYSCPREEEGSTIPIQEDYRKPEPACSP


Key:
Test in all cases: flow cytometry, CHO-K1; sub-column 1 of 2
[1] = target: T1, R93A
[2] = target: T2, H36A
[3] = target: T3, Q15A
[4] = target: T4, Q41A
[5] = target: T5, K38A
[6] = target: T6, N88A
[7] = target: T7, E9A
[8] = target: T8, V49A
[9] = target: T9, P44A
[10] = target: T10, Q91A

Molecule	% of WT hCD27 binding (geo mean FITC) [1]	% of WT hCD27 binding (geo mean FITC) [2]	% of WT hCD27 binding (geo mean FITC) [3]	% of WT hCD27 binding (geo mean FITC) [4]	% of WT hCD27 binding (geo mean FITC) [5]	% of WT hCD27 binding (geo mean FITC) [6]	% of WT hCD27 binding (geo mean FITC) [7]	% of WT hCD27 binding (geo mean FITC) [8]	% of WT hCD27 binding (geo mean FITC) [9]	% of WT hCD27 binding (geo mean FITC) [10]
1A4 (mouse IgG1) (antibody)	120%	111%	32%	106%	104%	154%	98.2%	144%	146%	146%
9F4 (mouse IgG2a) (antibody)	122%	88.5%	107%	113%	44.7%	153%	96.6%	151%	159%	149%
Antibody hCD27.131A (mouse parental 131A) (antibody, V domains shown, mouse IgG1; also called mouse hCD27.131A) VH: QIQLVQSGPELKKPGETVKISCKASGYTFTNYGMNWVKQAPGKGLKWMGWINTNTGEPTYAEEFKGRFAFSLETSATTAYLQINNLKNEDTATYFCAREGDAMDYWGQGTSVTVSS VL: QIVLTQSPAIMSASPGEKVTMTCSASSSVSYMHWYQQKSGTSPKRWIYDTSKLASGVPARFSGSGSGTSYSLTISSMEAEDAATYYCQQWNSYPFTFGSGTKLEIK	125%	54.1%	99.6%	108%	48.2%	162%	96.7%	147%	158%	148%
